Consider eleven molecules from US12098378B2, “Anti-fungal polypeptides” (priority 2020, dated 2024).

Numbering of substitutions follows the chain as printed. Names and notes keep the numbering of the source.

For assay [1], the system named is Fraction 3. The assay is described as follows: ELISA with biotinylated liposomes on streptavidin-coated plates. It counts as binding, Botrytis cinerea. The settings on record: screen for additional Fraction 3 binders (FIG. 13). The text has this:
Dissociation constants (Kd) can be estimated based on the results of an ELISA. In equilibrium analysis as in ELISA, the Kd can be calculated from the equilibrium binding response. Where the ELISA plate wells are coated with a target antigen, and where the target antigen may be a lipid-containing fraction of the membrane of Botrytis cinerea, such a method may further use a range of concentrations of a polypeptide binding the target antigen. Where the ELISA generally provides a quantitative adsorption measure for each polypeptide concentration representing binding of the polypeptide to the target antigen, the range of concentration of a polypeptide may for example be 0.5, 1, 2.5, 5, and 10 μM. The most suitable range of concentrations used can vary depending on the affinity of the polypeptide to the target antigen. The corresponding absorption values as determined by ELISA may result in a sigmoid curve when absorption values are plotted against the logarithmic conversion of the polypeptide concentrations. This sigmoid curve may serve to define an IC50 value. Where this IC50 is the concentration of polypeptide where the corresponding absorption value is 50% of the saturated value as estimated by the maximum of the sigmoidal function, the Kd can be estimated by 1/Ka were the association constant (Ka) can be estimated as 1/IC50. Thus Kd corresponds to the analyte concentration that reaches equilibrium at 50% binding saturation. Commonly computation methods can be used for these calculations. For example, this can be done using GraphPad. In some embodiments, the Kd may be determined by surface plasmon resonance (SPR).
The above-mentioned method for the formation of liposomes (Example 12) was modified with the addition of a biotinylated lipid (12:0 Biotinyl M G (1-(12-N-biotin)aminododecanoyl-rac-glycerol), Sigma Aldrich), to allow for use of these liposomes for ELISA using streptavidin-coated plates (Pierce™ Streptavidin Coated High Capacity Plates, Clear, 96-Well, blocked with SuperBlock™ Buffer, Thermo Fisher Scientific).
To estimate the dissociation constant Kd value of 10G11 binding to Fraction 3, the ELISA set-up with biotinylated liposomes from Fraction 3 as described in Example 13 was used. 10G11 polypeptide was added in the following concentrations: 0.5, 1, 2.5, 5, and 10 μM, prepared by a serial dilution in phosphate buffer. […] This plot was used to estimate the Kd dissociation constant using GraphPad. Where non-linear regression fitting was used.
Background: ELISA stands for enzyme-linked immunosorbent assay.

For assay [2], the system named is Botrytis cinerea R16. Kind of assay: In vitro antifungal assay, IncuCyte Zoom monitoring of fungal growth from spore suspension. It counts as cell-based. Here is the method:
Two-fold dilutions of purified VHH 10G11Q were prepared in 96-well microtiter plates. To 20 μl of these dilutions and to 20 μl of water as a control, 80 μl of fungal spore suspension (1 E+05 spores/ml in half strength potato dextrose broth (PDB)) were added, starting with a final VHH 10G11Q concentration of 10 μM. The test plates were incubated for 36 h at 25° C. using the IncuCyte Zoom live cell imaging system. All tests were performed in at least 2 replicates.
Two-fold dilutions of purified VHH 10G11Q and 41D01 were prepared in 96-well microtiter plates. To 20 μl of these dilutions and to 20 μl of water as a control, 80 μl of fungal spore suspension (1 E+05 spores/ml in half strength potato dextrose broth (PDB)) were added, starting with a final VHH 10G11Q concentration of 40 μM. The test plates were incubated for 48 h at 25° C. using the IncuCyte Zoom live cell imaging system. All tests were performed in at least 2 replicates.
Microplate graphs were generated using the time plot feature in the graph/export menu of the IncuCyte® Base Analysis Software. Raw data for confluence of treated samples at mid log growth were exported to GraphPad Prism 8 and plotted as a semi logarithmic function of the standard concentrations. IC50 values are extrapolated after fitting the data with a four-parameter logistic regression curve. Pathogen sensitivity is measured based on the IC50, which refers to the concentration (μM) that inhibits 50% of spore germination and/or mycelial growth.

Assay [3] deals with Botrytis cinerea R16. To be noted: several test strains, including Botrytis cinerea R16; WO2014/177595 A1 and WO2014/191146 A1; cited from earlier work.
Assay [4] relates to Colletotrichum orbiculare. The assay is described as follows: Control of anthracnose on squash in glasshouse. In kind it is in vivo. The settings on record: 175, 350, 700 g ai/ha, 4 applications; until 2 weeks after the last application; vs non-treated inoculated control (FIG. 18). On the procedure:
Four replicates of pot-grown squash plants (2 plants/pot) were sprayed with 125 ml aqueous suspension, containing a concentration of active ingredient as described in Table 2. Four applications were done spaced 6 or 7 days apart. Plants were inoculated once with Colletotrichum orbiculare two days after the first application (application A) of active ingredient. The efficacy of 10G11Q was compared to that of a non-treated control and the chemical reference Bravo WS (Chlorothalonil).
Disease severity is recorded as percent severity on a scale of 0-100%. Recording started when first symptoms appeared followed by regular assessment till 2 weeks after the fourth application (application D) of the active ingredient.

For assay [5], the system named is Botrytis cinerea R16. The assay is described as follows: Prolonged incubation antifungal assay followed over 14 days. It counts as cell-based. To be noted: followed over a period of 14 days (FIG. 9). On the procedure: Two-fold dilutions of purified VHH 10G11Q were prepared in 96-well microtiter plates. To 20 μl of these dilutions and to 20 μl of water as a control, 80 μl of fungal spore suspension (1 E+05 spores/ml in half strength potato dextrose broth (PDB)) were added, starting with a final VHH 10G11Q concentration of 10 μM. […] All tests were performed in at least 2 replicates.

B1: 10E11Q: VHH polypeptide, SEQ ID NO: 3 (protein)
VHH: QVQLQESGGGLVQAGGSLRLSCAASGTIFRPTAMGWYRQAPGKERELVATITTGGSTKYADSVKGRFTISRGNAKNTVYLQMSSLKPEDTAVYYCNAQWGVRTRDYWGQGTQVTVSS
Consider B1, for which, in assay [1], the “binding to Fraction 3 by ELISA” value is “Fraction 3 binding”.

B2: 12C03Q: VHH polypeptide, SEQ ID NO: 5 (protein)
VHH: QVQLQESGGGLVQAGDSLRLSCAASISDRAFSRHVMGWFRQPPGKEREFVAAIGWTGRRTYYADSVKGRFTISRDNAMNTVYLQMNSLKPEDTAVYYCAASHFYSVSFEINDYDYWGQGTQVTVSS
As for B2, the “binding to Fraction 3 by ELISA” value in assay [1] is recorded as “Fraction 3 binding”.

B3: 10G11Q-His: 10G11Q polypeptide with a C-terminal addition of a 6× His-Tag (SEQ ID NO: 148) (protein)
VHH: QVQLQESGGGLVQAGGSLRLSCAASRSIFSINAMDWYRQAPGKQREWVAGITRGGTTKYADSVKGRFTISRDNAKKKVYLQMNSLKPEDTAVYYCNVLRGEQPWTRDYWGQGTQVTVSSAAAHHHHHH
modifications: C-terminal 6xHis tag
Regarding B3, in assay [2] (assay as in Example 5 (FIG. 4)), the “antifungal activity of his-tagged variant relative to 10G11Q” value was “significantly improved anti-fungal activity”.

B4: 41D01: anti-glucosylceramide binding VHH described in WO2014/177595 A1 and WO2014/191146 A1 (protein)
VHH: QVQLQESGGGLVQAGGSLRLSCAASGRTFSRYGMGWFRQLPGKQRELVTSITRGGTTTYADSVKGRFTISRDNAKNTVYLQMNSLKPEDTAVYYCNARSIWRDYWGQGTQVTVSS
modifications: left off: small tags and cut ends
Turning to B4, the “antifungal activity among anti-glucosylceramide binding VHHs” value in assay [3] is given as “most prominent antifungal activity”.

B5: 10G11Q: VHH polypeptide, SEQ ID NO: 1, begins with a Q residue (protein)
VHH: QVQLVESGGGLVQAGGSLRLSCAASRSIFSINAMDWYRQAPGKQREWVAGITRGGTTKYADSVKGRFTISRDNAKKKVYLQMNSLKPEDTAVYYCNVLRGEQPWTRDYWGQGTQVTVSS
For B5, the “% fungal growth (total green object area) in function of VHH concentration” value in assay [2] (two-fold dilutions from 10 μM, 36 h at 25° C. (FIG. 1)) is “clear dose-dependent growth inhibition pattern”. Moreover, in assay [2] (two-fold dilutions from 40 μM, 48 h at 25° C. (FIG. 2)), the “growth inhibition compared to VHH 41D01” value is “more prominent growth inhibition pattern”. Further, the “percent severity of anthracnose on squash” value in assay [4] is “clear and dose-related growth inhibition pattern”.

B6: Mutant 10: 10G11 charge variant: W100aK and T100bK substitutions in CDR3 (SEQ ID NO: 16) (protein)
VHH: B5 VHH with Q1D, W104K, T105K
With B6, the “antifungal activity of charge variants relative to 10G11” value in assay [2] (assay as in Example 5 (FIG. 6)) is given as “significant increase in antifungal activity”.

B7: Mutant 8: 10G11 charge variant: S27H, I28H, S30H in CDR1 and W100aH, T100bH in CDR3 (SEQ ID NO: 14) (protein)
VHH: B5 VHH with Q1D, S27H, I28H, S30H, W104H, T105H
B7: the “antifungal activity of charge variants relative to 10G11” value in assay [2] (assay as in Example 5 (FIG. 6)) is on record as “significant increase in antifungal activity”.

B8: Mutant 9: 10G11 charge variant: S27K, I28K and S30K substitutions in CDR1 (SEQ ID NO: 15) (protein)
VHH: B5 VHH with Q1D, S27K, I28K, S30K
Take B8: the “antifungal activity of charge variants relative to 10G11” value in assay [2] (assay as in Example 5 (FIG. 6)) is recorded as “significant increase in antifungal activity”. Also, the “effect on preventing spore outgrowth” value in assay [5] is reported as “sustained effect on preventing spore outgrowth”.

B9: Mutant 7: 10G11 charge variant: W100aH and T100bH substitutions in CDR3 (SEQ ID NO: 13) (protein)
VHH: B5 VHH with Q1D, W104H, T105H
With B9, the “antifungal activity of charge variants relative to 10G11” value in assay [2] (assay as in Example 5 (FIG. 6)) was “on par antifungal activity with 10G11”.

B10: Mutant 6: 10G11 charge variant: S27H, I28H and S30H substitutions in CDR1 (SEQ ID NO: 12) (protein)
VHH: B5 VHH with Q1D, S27H, I28H, S30H
In the case of B10, the “antifungal activity of charge variants relative to 10G11” value in assay [2] (assay as in Example 5 (FIG. 6)) is recorded as “on par antifungal activity with 10G11”.

B11: Mutant 11: 10G11 charge variant: S27K, I28K, S30K in CDR1 and W100aK, T100bK in CDR3 (SEQ ID NO: 17) (protein)
VHH: B5 VHH with Q1D, S27K, I28K, S30K, W104K, T105K
Regarding B11, in assay [2] (assay as in Example 5 (FIG. 6)), the “antifungal activity of charge variants relative to 10G11” value is “significant increase in antifungal activity” and the “increase in anti-fungal activity over 10G11” value is on record as “up to 5 fold”. The “effect on preventing spore outgrowth” value in assay [5] was “sustained effect on preventing spore outgrowth”.
